# Data from patent US8217006B2, “Inhibiting GS-FDH to modulate no bioactivity” (Duke University, priority 2001, dated 2012).
# B1: mouse GS-FDH (Mus musculus) (protein)
# chain: MANQVIRCKAAVAWEAGKPLSIEEIEVAPPKAHEVRIKILATAVCHTDAYTLSGADPEGCFPVILGHEGAGIVESVGEGVTKLKAGDTVIPLYIPQCGECKFCLNPKTNLCQKIRVTQGKGLMPDGTSRFTCKGKSVFHFMGTSTFSEYTVVADISVAKIDPSAPLDKVCLLGCGISTGYGAAVNTAKVEPGSTCAVFGLGGVGLAVIMGCKVAGASRIIGIDINKDKFAKAKEFGASECISPQDFSKSIQEVLVEMTDGGVDYSFECIGNVKVMRSALEAAHKGWGVSVVVGVAASGEEISTRPFQLVTGRTWKGTAFGGWKSVESVPKLVSEYMSKKIKVDEFVTGNLSFDQINQAFDLMHSGDSIRTVLKM
# Substrate: N[C@@H](CCC(=O)N[C@@H](CSN=O)C(=O)NCC(=O)O)C(=O)O
# Experiment: cells, lysate or membranes named
# Details: other: purified protein from RAW 264.7 cells; pH 8.0
protein,measurement,value
B1,Km,20 µM
same,kcat,"5,600 min^−1"
